Test [1] has as its target human FcγRIIIa stably expressed on CHO cells (human) (UniProt P08637).
Test [2] shares this target. As to the kind of experiment: flow cytometry on cells. A general note: A flow cytometer gives signals particle by particle.

UniProt P08637, sequence (P08637 17-254): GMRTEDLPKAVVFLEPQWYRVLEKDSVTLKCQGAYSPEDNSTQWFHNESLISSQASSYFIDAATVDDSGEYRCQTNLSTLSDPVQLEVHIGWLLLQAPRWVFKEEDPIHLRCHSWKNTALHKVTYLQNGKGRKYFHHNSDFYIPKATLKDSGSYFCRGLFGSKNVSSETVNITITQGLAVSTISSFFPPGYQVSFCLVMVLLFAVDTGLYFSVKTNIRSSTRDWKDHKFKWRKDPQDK

B1: BMS-986012, nonfucosylated fully human IgG1 anti-fucosyl-GM1 antibody (antibody, V domains shown)
VH: EVQLVESGGGSVQPGESLRLSCVASGFTFSRYKMNWVRQAPGKGLEWVSYISRSGRDIYYADSVKGRFTISRDNAKNSLYLQMNSLRDEDTAVYYCAGTVTTYYYDFGMDVWGQGTTVTVSS
VL: DIQMTQSPSSLSASVGDRVTITCRASQGISSWLAWYQQKPEKAPKSLIYAASSLQSGVPSRFSGSGSGTDFTLTISSLQPEDFATYYCQQYNSYPPTFGGGTKVEIK
Consider B1, for which, in test [1], the NK cell-mediated ADCC against the FucGM1+ SCLC cell line DMS79, EC50 is 0.06 nM. The EC50 (as a rule, the midpoint of the concentration-response curve) in test [2] turned out to be 3.5 nM.

B2: 7E4, fucosylated parental anti-fucosyl-GM1 antibody in conventional fucosylated IgG1 format (antibody, V domains shown)
VH: B1 VH
VL: B1 VL
As for B2, the NK cell-mediated ADCC against the FucGM1+ SCLC cell line DMS79, EC50 in test [1] amounted to 8 nM. In test [2], the EC50 stood at 138 nM.

Source of the values: article PMC6499931.
